Reference: patent US20090053180A1, “Tandem cardiac pacemaker system” (priority 2005, published 2009)
Entries after “also recorded” stand apart in the source; their conditions may differ.

Assays:
[1] = system: newborn rat ventricular myocytes; assay: Whole-cell voltage clamp of expressed HCN current in newborn rat ventricular myocytes; type: cell-based; details: for V1/2 / s: fit of average data; for current density: measured at −135 mV
Experimental: Adult rats were anesthetized with ketamine-xylazine before cardiectomy, and neonatal rats decapitated. Newborn rat ventricular myocyte cultures were prepared as previously described (Protas and Robinson, 1999). Briefly, 1-2-day-old Wistar rats were euthanized, hearts were quickly removed and ventricles were dissociated using a standard trypsinization procedure. Myocytes were harvested, preplated to reduce fibroblast proliferation, cultured initially in serum-containing medium (except when being transfected with plasmids as described below), and then incubated in serum free medium (SFM) at 37° C., 5% CO2 after 24 h. Action potential studies were conducted on 4-day-old monolayer cultures plated directly onto fibronectin-coated 9×22 mm glass coverslips. For voltage clamp experiments, 4-6 day old monolayer cultures were resuspended by brief (2-3 min) exposure to 0.25% trypsin, then replated onto fibronectin-coated coverslips and studied within 2-8 h.
Adenoviral infection of the newborn ventricular myocytes was performed on cell monolayer cultures 4 days after initial plating. Cells were exposed to a virus-containing mix (m.o.i. 20, in 250 μl of culture medium) for 2 h, rinsed twice and incubated in SFM at 37° C., 5% CO2 for 24-48 hours prior to the cells being resuspended as described above for electrophysiological study.
The whole-cell patch clamp technique was employed to record mHCN2 current from cultured myocytes. Experiments were carried out on cells superfused at 35° C. The external solution contained (mM): NaCl, 140; NaOH, 2.3; MgCl2, 1; KCl, 10; CaCl2, 1; HEPES, 5; glucose, 10; pH 7.4. MnCl2 (2 mM) and BaCl2 (4 mM) were added to block other currents. The pipette solution contained (mM): aspartic acid, 130; KOH, 146; NaCl, 10; CaCl2, 2; EGTA-KOH, 5; Mg-ATP, 2; HEPES-KOH, 10; pH 7.2.
To measure the HCN activation curve, a standard two-step protocol was employed. Hyperpolarizing steps from −25 to −135 mV for mHCN2 and from −5 or −15 to −135 mV for mE324A were applied from a holding potential of −10 mV, followed by a tail current step (to −125 or −135 mV). The duration of test steps was longer at less hyperpolarized potential for mHCN2 channels, to more closely approach steady-state activation at all voltages. The normalized plot of tail current versus test voltage was fit with a Boltzmann function and then the voltage of half maximum activation (V1/2) and slope factor(s) were defined from the fitting. Activation kinetics were determined from the same traces, while deactivation kinetics were determined from traces recorded at each test potential after achieving full activation by a prepulse to −135 mV. Time constants were then obtained by fitting the early time course of activation or deactivation current traces with a monoexponential function; the initial delay and any late slow activation or deactivation phase were ignored (Qu et al., 2001; Altomare et al., 2001). Current densities are expressed as the value of the time-dependent component of current amplitude, measured at the end of the test potential and normalized to cell membrane capacitance. Records were not corrected for liquid junction potential, which was previously determined to be 9.8 mV under these conditions (Qu et al., 2001).

[2] = system: dogs with complete AV block; assay: Tandem biological and electronic pacemakers in dogs with complete AV block (injection into left bundle branch); type: in vivo, dog
Experimental: Adult mongrel dogs weighing 22-25 kg were anesthetized with propofol 6 mg/kg IV and inhalational isoflurane (1.5%-2.5%). Using a steerable catheter, saline (n=5), AdmHCN2 (n=6) or AdmE324A (n=4) were injected into the left bundle branch (LBB) as described previously (Plotnikov et al., 2004). In 2 additional dogs AdmE324A was injected into the LV septal myocardium as an internal control. Complete AV block was induced via radiofrequency ablation and each site of injection was paced via catheter electrode to distinguish electrocardiographically the origin of the idioventricular rhythm during the follow up period.
An electronic pacemaker (Discovery II, Flextend lead; Guidant, Indianapolis, Ind.) was implanted and set at VVI 45 bpm. ECG, 24 hour Holter monitoring, pacemaker log record check, and overdrive pacing at 80 bpm were performed daily for 14 days. To evaluate beta-adrenergic responsiveness, on day 14, epinephrine (1.0, 1.5 and 2.0 μg/kg/min for up to 10 min each) was infused to an endpoint of a 50% increase in idioventricular rate or ventricular arrhythmia (single ventricular premature beats having a morphology other than that of the dominant idioventricular rhythm or ventricular tachycardia), whichever occurred first. If none of the above responses was observed within 10 min after onset of the maximal dose of 2 μg/kg/min, the infusion was terminated.
Data are presented as means±SEM. […] One-way ANOVA was used to evaluate the effect of an implanted construct on electrophysiological parameters. Subsequent analysis was performed using Bonferroni's test where equal variances were assumed and the Games-Howell test where variances were unequal. A two-way contingency table analysis was conducted to evaluate whether epinephrine had different effects across three groups. Data were analyzed using SPSS for Windows software (SPSS, Inc.). P<0.05 was considered to be significant.
Complete AV block was induced via radiofrequency ablation, and electronic pacemakers were implanted into the right ventricular apical endocardium and set a VV1 45 bpm. ECG and 24-h monitoring were performed daily for 14 days. Beta-adrenergic responsiveness was also evaluated as described above.
Escape time was evaluated daily by performing three 30-s periods of ventricular overdrive pacing at 80 bpm followed by an abrupt cessation of pacing. The average time between the final electronically paced beat and the first intrinsic beat was then determined. […] There was a different result with regard to basal heart rates throughout the 14-day period, however.

[3] = system: cell-free patches from Xenopus oocytes; details: cited from earlier work
Xenopus oocytes = assay: Two-microelectrode voltage clamp of expressed HCN current in Xenopus oocytes; type: cell-based, Xenopus laevis
[4] = system: canine proximal LV conducting system; details: sinus rhythm suppressed by vagal stimulation; cited from earlier work
[5] = 10 μM cAMP in the pipette solution

B1: mHCN2: mouse HCN2 pacemaker ion channel (GenBank AJ225122), expressed from plasmid, cRNA or adenoviral construct AdmHCN2 (protein, UniProt O88703 1-863, looked up)
Potassium/sodium …: MDARGGGGRPGDSPGTTPAPGPPPPPPPPAPPQPQPPPAPPPNPTTPSHPESADEPGPRARLCSRDSACTPGAAKGGANGECGRGEPQCSPEGPARGPKVSFSCRGAASGPSAAEEAGSEEAGPAGEPRGSQASFLQRQFGALLQPGVNKFSLRMFGSQKAVEREQERVKSAGAWIIHPYSDFRFYWDFTMLLFMVGNLIIIPVGITFFKDETTAPWIVFNVVSDTFFLMDLVLNFRTGIVIEDNTEIILDPEKIKKKYLRTWFVVDFVSSIPVDYIFLIVEKGIDSEVYKTARALRIVRFTKILSLLRLLRLSRLIRYIHQWEEIFHMTYDLASAVMRICNLISMMLLLCHWDGCLQFLVPMLQDFPSDCWVSINNMVNHSWSELYSFALFKAMSHMLCIGYGRQAPESMTDIWLTMLSMIVGATCYAMFIGHATALIQSLDSSRRQYQEKYKQVEQYMSFHKLPADFRQKIHDYYEHRYQGKMFDEDSILGELNGPLREEIVNFNCRKLVASMPLFANADPNFVTAMLTKLKFEVFQPGDYIIREGTIGKKMYFIQHGVVSVLTKGNKEMKLSDGSYFGEICLLTRGRRTASVRADTYCRLYSLSVDNFNEVLEEYPMMRRAFETVAIDRLDRIGKKNSILLHKVQHDLSSGVFNNQENAIIQEIVKYDREMVQQAELGQRVGLFPPPPPPQVTSAIATLQQAVAMSFCPQVARPLVGPLALGSPRLVRRAPPGPLPPAASPGPPAASPPAAPSSPRAPRTSPYGVPGSPATRVGPALPARRLSRASRPLSASQPSLPHGVPAPSPAASARPASSSTPRLGPAPTARTAAPSPDRRDSASPGAASGLDPLDSARSRLSSNL
With B1 the “shift of V1/2 by cAMP” value [1, 5] was 9.7 mV, the “percentage of myocytes expressing current” value ([1]; 6 matched cell cultures) was 74.5% and the midpoint of activation ([1]; HCN2 virus characterized in neonatal rat myocytes) was −69.3 mV. For the same molecule, the “activation τ” value ([1]; at −65 mV) was 639 ± 72 ms, the V1/2 [1, 5] was −59.9 mV and the s [1, 5] was 11.0 mV. It also gave a V1/2 ([1]; absence of cAMP) of −69.6 mV, a s ([1]; absence of cAMP) of 10.8 mV and a slope factor s ([1]; mean of individual Boltzmann fits) of 10.7±0.5 mV. The “V1/2 (voltage of half maximum activation)” value ([1]; mean of individual Boltzmann fits, adenoviral infection) was −66.1±1.5 mV, the current density [1] was 53.5±8.7 pA/pF and the current density ([1]; listed as HCN2) was 53.5±8.3 pA/pF. For the same molecule, the “share of animals with 50% or more increase that required the highest dose of epinephrine” value ([2]; 2 μg/kg/min) was 33%, the “beats triggered by the electronic pacemaker, of all beats” value ([2]; 14 days, electronic pacemaker set at VVI 45 bpm) was 26±6% and the “arrhythmias during epinephrine infusion” value ([2]; day 14) was “two animals developed ventricular arrhythmias”. The “mean basal heart rate compared with saline group” value ([2]; days 1-7 and 8-14) was “significantly faster”, the “animals with less than a 50% increase in rate” value ([2]; epinephrine 1.0, 1.5, 2.0 μg/kg/min, day 14) was 50% and the “control rate prior to epinephrine” value ([2]; representative animal, day 14) was 44 bpm. For the same molecule, the rate with epinephrine ([2]; representative animal, epinephrine 1 μg/kg/min) was 60 bpm, the “shift of activation curve to more positive potentials by cAMP” value [3] was 17 mV and the “activation more negative than mE324A” value (Xenopus oocytes) was 35 mV. For the same molecule, the “effect of Cs+ on inward current” value (Xenopus oocytes; 5 mM Cs+) was “blocked; also recorded: large inhibition” and the “rate of idioventricular rhythms” value [4] was 50-60 bpm.
